According to patent US20040106557A1 (LICENTIA, published 2004):
Bridge positions count the residues as written; N and C are the ends. Ends that are not written are not given here.

B1: phage-displayed peptide A-1 (fUSE5 phage clone) (peptide)
chain: CVFTSDYAFC
notes: not shown: fUSE5 phage protein III and flanking residues
B2: phage-displayed peptide Z-10 (fUSE5 phage clone) (peptide)
chain: CVPYLGLWLC
modifications: cysteine pairing not given here; also: displayed on fUSE5 phage protein III with flanking residues
notes: isolated with 200 µM ZnCl2; not shown: fUSE5 phage protein III and flanking residues
B3: phage-displayed peptide A-4 (fUSE5 phage clone) (peptide)
chain: CVFDDLYSFC
notes: as for B1
B4: A-1-4 (A-1 N6) (peptide)
peptide: CVFTSNYAFC
modifications: disulfide 1-10 (inferred)
B5: B-2-4 (B-2 10 N8) (peptide)
peptide: CVFAHNYNYC
modifications: disulfide 1-10 (inferred)
B6: A-1-3 (A-1 N6N8Y9) (peptide)
peptide: CVFTSNYNYC
modifications: disulfide 1-10 (inferred)
B7: phage-displayed peptide Z-7 (fUSE5 phage clone) (peptide)
chain: CVFDALYTFC
modifications: cysteine pairing not given here; also: displayed on fUSE5 phage protein III with flanking residues
notes: as for B2
B8: Tc99m-labeled C4 (peptide)
peptide: CVAYCIEHHCWTC
modifications: also: 99mTc chelated between thiol sulfurs of reduced peptide
B9: C-4-2 (C-4 F4) (peptide)
peptide: CVAFCIEHHCWTC
modifications: disulfide (positions not given here)
B10: C-4-4 (C-4 10A5Q7) (peptide)
peptide: CVAYAIQHHC
modifications: disulfide 1-10 (inferred)
B11: phage-displayed peptide C-3 (fUSE5 phage clone) (peptide)
chain: CVAYCEEWECYVC
notes: as for B1
B12: B-2-2 (B-2 N8) (peptide)
peptide: CVFAHNYNYLVC
modifications: disulfide 1-12 (inferred)
B13: C-4-6 (C-4 A11) (peptide)
peptide: CVAYCIEHHCATC
modifications: disulfide (positions not given here); not fully specified
B14: phage-displayed peptide A-3 (fUSE5 phage clone) (peptide)
chain: CIFEPDYSYC
notes: as for B1
B15: A-1-6 (A1 N6Y7Y9) (peptide)
peptide: CVFTSNAAYC
modifications: disulfide 1-10 (inferred)
B16: C-4-5 (C-4 A4) (peptide)
peptide: CVAACIEHHCWTC
modifications: disulfide (positions not given here)
B17: phage-displayed peptide B-1 (fUSE5 phage clone) (peptide)
chain: CTFSVDYKYLMC
notes: as for B1
B18: GST-C-4 (peptide C-4 expressed as glutathione S-transferase fusion protein) (other)
chain: CVAYCIEHHCWTC
B19: phage-displayed peptide Z-1 (fUSE5 phage clone) (peptide)
chain: CVTYCYGEVCYYC
notes: isolated with 200 µM ZnCl2 in the panning buffer; not shown: fUSE5 phage protein III and flanking residues
B20: phage-displayed peptide B-2 (fUSE5 phage clone) (peptide)
chain: CVFAHNYDYLVC
notes: as for B1
B21: phage-displayed peptide C-2 (fUSE5 phage clone) (peptide)
chain: CVEYCWEGSCYVC
notes: as for B1
B22: A-1-2 (A-1 N6Y9) (peptide)
peptide: CVFTSNYAYC
modifications: disulfide 1-10 (inferred)
B23: B-2-3 (B-2 N8A9) (peptide)
peptide: CVFAHNYNALVC
modifications: disulfide 1-12 (inferred)
B24: chemically synthesized peptide B-2 (B-2-1, B-2 parent) (peptide)
peptide: CVFAHNYDYLVC
modifications: disulfide 1-12
B25: phage-displayed peptide Z-3 (fUSE5 phage clone) (peptide)
chain: CVQYCIGGDCWFC
modifications: cysteine pairing not given here; also: displayed on fUSE5 phage protein III
notes: as for B2
B26: phage-displayed peptide Z-5 (fUSE5 phage clone) (peptide)
chain: CVAYCISSLCYYC
modifications: cysteine pairing not given here; also: displayed on fUSE5 phage protein III
notes: as for B2
B27: B-2-5 (B-2 A7) (peptide)
peptide: CVFAHNANYLVC
modifications: disulfide 1-12 (inferred)
B28: C-4-3 (C-4 Q7) (peptide)
peptide: CVAYCIQHHCWTC
modifications: disulfide (positions not given here)
B29: C-4-7 (cyclic with peptide bond) (peptide)
peptide: cyclo(HHCWTVAYCIE)
modifications: disulfide 3-9 (inferred)
B30: phage-displayed peptide C-1 (fUSE5 phage clone) (peptide)
chain: CVSYCLFEFCYVC
notes: as for B1
B31: A-1-5 (A-1 Y39) (peptide)
peptide: CVYTSDYAYC
modifications: disulfide 1-10 (inferred)
B32: phage-displayed peptide Z-6 (fUSE5 phage clone) (peptide)
chain: CVWYTGNTWC
modifications: not fully specified; cysteine pairing not given here; also: displayed on fUSE5 phage protein III with flanking residues
notes: as for B2
B33: phage-displayed peptide D-2 (fUSE5 phage clone) (peptide)
chain: CLLYCHDACWWVC
notes: as for B1
B34: phage-displayed peptide Z-11 (fUSE5 phage clone) (peptide)
chain: CMFDPMYMWMTC
modifications: cysteine pairing not given here; also: displayed on fUSE5 phage protein III with flanking residues
notes: as for B2
B35: phage-displayed peptide Z-4 (fUSE5 phage clone) (peptide)
chain: CVVYCDSMKCWTC
modifications: cysteine pairing not given here; also: displayed on fUSE5 phage protein III
notes: as for B2
B36: phage-displayed peptide D-1 (fUSE5 phage clone) (peptide)
chain: CLSTCAQSCRISC
notes: as for B1
B37: phage-displayed peptide A-2 (fUSE5 phage clone) (peptide)
chain: CVIYDGNHWC
notes: as for B1
B38: phage-displayed peptide C-5 (fUSE5 phage clone) (peptide)
chain: CVSYCDGLQCWMC
notes: as for B1
B39: phage-displayed peptide Z-8 (fUSE5 phage clone) (peptide)
chain: CVIYPGNVWC
modifications: cysteine pairing not given here; also: displayed on fUSE5 phage protein III with flanking residues
notes: as for B2
B40: phage-displayed peptide B-3 (fUSE5 phage clone) (peptide)
chain: CRFDKEYRTLVC
notes: as for B1
B41: chemically synthesized peptide A-1 (A-1-1, A-1 parent) (peptide)
peptide: CVFTSDYAFC
modifications: disulfide 1-10
B42: phage-displayed peptide Z-2 (fUSE5 phage clone) (peptide)
chain: CAAYCVAGLCYGC
modifications: cysteine pairing not given here; also: displayed on fUSE5 phage protein III
notes: as for B2
B43: chemically synthesized peptide C-4 without GA flanks (C-4-1, C4 parent) (peptide)
peptide: CVAYCIEHHCWTC
modifications: disulfide 1-13, 5-10
B44: phage-displayed peptide C-4 (fUSE5 phage clone) (peptide)
chain: CVAYCIEHHCWTC
notes: as for B1

Assays:
[1] = molecular target: T1, Prostate specific antigen (PSA), purified from human seminal fluid (human, UniProt P07288 25-261); assay: phage display, three rounds of selection on PSA captured by MAb 5E4
T1 construct: mature; Mostly captured on wells by MAb 5E4 (IFMA) or on the chip by MAb H117 (SPR); in solution in enzyme assays; also called free PSA; active PSA
Experimental: (§1) The screening of phage display peptide libraries was performed essentially as described by Koivunen et al. (21). Briefly, each phage library was separately screened with PSA captured on microtiter wells coated with the monoclonal antibody 5E4, which binds both free and complexed PSA (24). 33 nM PSA in TBS buffer containing 10 g/L BSA (BSA-TBS) was incubated in wells coated with MAb 5E4 for 1 h, then the wells were washed to remove unbound PSA. An aliquot of each phage library ([…] infectious particles) was added to the wells, and incubated for 3 h at 22° C. during the first round of panning and for 1 h during subsequent rounds. The phage solution was removed and the wells were washed with TBS containing 0.5% Tween 20. The panning was also performed in the prescence of 200 μM ZnCl2. The bound phage were eluted with 0.1 M glycine buffer, pH 2.2 and neutralized with 1 M Tris base. The eluted phage were amplified by infection of E. coli K91 kan cells, and purified by precipitation with polyethylene glycol. After three rounds of selection and amplification single stranded DNA from individual phage clones was prepared and the peptide sequences were determined by sequencing the relevant part of the viral DNA. Sequencing was performed with an ABI 310 Genetic analyzer and Dye Terminator Cycle Sequencing Core Kit (PE Applied Biosystems, Foster City, Calif., USA) using the oligonucleotide 5′ […] 3′ as a primer.

[2] = molecular target: T1, Prostate specific antigen (PSA), …; assay: phage display selection on PSA captured by MAb 5E4, 200 µM ZnCl2 in the panning buffer
Experimental: as §1

[3] = molecular target: T1, Prostate specific antigen (PSA), …; assay: cell-based or functional assay
[4] = molecular target: T1, Prostate specific antigen (PSA), …; assay: cell-based or functional assay; remark: listed apart in the source
[5] = molecular target: T1, Prostate specific antigen (PSA), …; assay: GST-peptide IFMA, PSA captured by MAb 5E4, Eu-labelled anti GST tracer
[6] = molecular target: T1, Prostate specific antigen (PSA), …; assay: cell-based or functional assay; remark: listed apart in the source

Binder | binding result [1] | PSA-peptide/PSA ratio [3] | other results
B1 | binds | – | –
B2 | – | – | binding result [2]: binds
B3 | binds | – | –
B4 | – | 2.4 ratio | –
B5 | – | 1.9 ratio | –
B6 | – | 1.9 ratio | –
B7 | – | – | binding result [2]: binds
B8 | – | – | decrease in PSA enzyme activity (S-2586, A405), 30-fold molar excess of peptide [4]: ~50%
B9 | – | 2.3 ratio | –
B10 | – | 1.1 ratio | –
B11 | binds | – | –
B12 | – | 3.1 ratio | –
B13 | – | 0.9 ratio | –
B14 | binds | – | –
B15 | – | 1 ratio | –
B16 | – | 1 ratio | –
B17 | binds | – | –
B18 | – | – | Maximal binding (CPS) [5]: 790000 CPS; 50% stimulation [6]: 0.57 µM
B19 | – | – | binding result [2]: binds
B20 | binds | – | –
B21 | binds | – | –
B22 | – | 2.3 ratio | –

Binder | binding result [1] | PSA-peptide/PSA ratio [3] | other results
B23 | – | 2.6 ratio | –
B24 | – | 3 ratio | –
B25 | – | – | binding result [2]: binds
B26 | – | – | binding result [2]: binds
B27 | – | 1.1 ratio | –
B28 | – | 2.1 ratio | –
B29 | – | 0.8 ratio | –
B30 | binds | – | –
B31 | – | 1 ratio | –
B32 | – | – | binding result [2]: binds
B33 | binds | – | –
B34 | – | – | binding result [2]: binds
B35 | – | – | binding result [2]: binds
B36 | binds | – | –
B37 | binds | – | –
B38 | binds | – | –
B39 | – | – | binding result [2]: binds
B40 | binds | – | –
B41 | – | 2.3 ratio | –
B42 | – | – | binding result [2]: binds
B43 | – | 2.1 ratio | –
B44 | binds | – | –
